assay: soluble on expression in E. coli; label from the status in PepcDB or PDB records

Sequence | soluble on expression in E. coli
MGSLEKFNLIDEPWIPVLKGGRVVEVGIGEALLRAHEFARIETPSPLEEAVLHRLLLAVLHRALSGPRCPEDVLDWWRKGGFPQDPIRDYLNRFRDRFFLFHPEAPFLQVADLPEENPLPWSKLLPELASGNNPTLFDHTTEENLPKATYAQAARALLVHQAFAPGGLLRRYGVGSAKDAPVARPALFLPTGQNLLETLLLNLVPYTPEDDAPIWEVPPLRLGDLEGARTKWPLTGRTRVYTWPARGVRLLDEGDGVRFMGYGPGVEPLEATHRDPMVAQRLDAKGNLLVLRLSEERSFWRDFSAMLPRQGGKVAATLEHAENLQGELEDEGLEGRITLRVLGQVSDQAKVLDIRREVYPLPSGLLTPKAEENLEKALKMAEELGQGLKHLAQEVAKAVVGERDRGHGRSPYLEELTKLANSLPLERLYWHALDGAFPRFFARVEEEASLDLWREALRGAALEAWKATRRFLGTGARHLKALAQGEQEFGRLLGELGEEVRT | soluble
MGSRSSHAAVIPDGDSIRRETGFSQASLLRLHHRFRALDRNKKGYLSRMDLQQIGALAVNPLGDRIIESFFPDGSQRVDFPGFVRVLAHFRPVEDEDTETQDPKKPEPLNSRRNKLHYAFQLYDLDRDGKISRHEMLQVLRLMVGVQVTEEQLENIADRTVQEADEDGDGAVSFVEFTKSLEKMDVEQKMSIRILKHHHHHH | soluble
MGSSHHHHHHGGTGENLYFQGGSGAGIKSRERLRRDQERQLRQLPFLYHRVKDLQDTCERLEQELASSHQRVAAFQQEAFALRSLIKFTEHPELAAAAKNDAAKHVLQEEVRELRNQVQRLRREKELSLRQSEEACEAAEFYKELCDQLYEESLRAAEAIAVGGATSGLESVVTPLPNRNVDDMTLAVSTAPSTATSMEAQMRQLHGALELERARSSALVETVSLLHTAMKATTAAGTKRSTPAPDSSAGWAERRREDDTSGICASRSRVFADDTRKSRTRLKRLAAVLRVENRLLTQRVTEVVARNMRCVKEISALKLANKRLELNQRQES | soluble
MGSSHHHHHHGGTGENLYFQGGSGAKKHLKRLYAPKDWMLSKLTGVFAPRPRPGPHKLRECLPLLVIIRNRLKYALNAREGEMILRQGLVHVDNHPRRDGKYPAGFMDVVEIPKTGDRFRLMYDVKGRFALVNLSEAEAQIKLMKVVNLYTATGRVPVAVTHDGHRIRYPDPHTSIGDTIVYNVKEKKCVDLIKNRQGKAVIVTGGANRGRIGEIVKVECHPGAFNIAHLKDASGAEFATRAANIFVIGKDLNNLQVTVPKQQGLRMNVIQEREERLIAAEARKNAPARGARRARK | soluble
MGSSHHHHHHGGTGENLYFQGGSGTNVPLTQRITAFNNYVGNASNRDRVMSVVQFGAMALAAPAAAAGCPELSAHLSTILHGAAHYRTVTRFSQWLVVAPALTPSGIKSAIASHPNLLVGICKTISTAFFTVFLIGEELVLASKCNMLDPVLGKRFNRIRFVFLFWSNIARLVMSYLLLKSSKYDAVKDNQNEEKAKDHRRKVLGVADGVLQSMFCYTLLKSSAPAGPKYLSAALRSGKAVDIITSLAPPLLVVPSTPQGMLGLAASVPGFMMSVL | not soluble
MGSSHHHHHHMAYTNTPHNWGIPRPKNETVPDAGKLYTDLLQKNGGFYLGDTKKKDIYLTFDNGYENGYTGKILDVLKEKKVPATFFVTGHYIKTQKDLLLRMKDEGHIIGNHSWSHPDFTAVNDEKLREELTSVTEEIKKVTGQKEVKYVRPPRGVFSERTLALTKEMGYYNVFWSLAFLDWKVDEQRGWQYAHNNVMTMIHPGSILLLHAISKDNAEALAKIIDDLREKGYHFKSLDDLVKSNQP | soluble
MGSSHHHHHHNYNIPTTENLYFQGHMNIGLLEALDQLEEEKGISKEEVIPILEKALVSAYRKNFGNSKNVEVVIDRNTGNIKVYQLLEVVEEVEDPATQISLEEAKKIDPLAEVGSIVKKELNVKNFGRIAAQTAKQVLIQRIRELEKEKQFEKYSELKGTVTTAEVIRVMGEWADIRIGKLETRLPKKEWIPGEEIKAGDLVKVYIIDVVKTTKGPKILVSRRVPEFVIGLMKLEIPEVENGIVEIKAIAREPGVRTKVAVASNDPNVDPIGACIGEGGSRIAAILKELKGEKLDVLKWSDDPKQLIANALAPATVIEVEILDKENKAARVLVPPTQLSLAIGKGGQNARLAAKLTGWKIDIKPIMNL | soluble
MGSSHHHHHHSSGLVPRGSAKSFSSQKAYKIVLAGDAAVGKSSFLMRLCKNEFRENISATLGVDFQMKTLIVDGERTVLQLWDTAGQERFRSIAKSYFRKADGVLLLYDVTCEKSFLNIREWVDMIEDAAHETVPIMLVGNKADIRDTAATEGQKCVPGHFGEKLAMTYGALFCETSAKDGSNIVEAVLHLAREVKKRT | soluble

From the DeepSol protein solubility set
